Source: the supplement of paper PMC10567573

B1: SLC35F2 (parent)
chain: SFMPLVIKVTSATSVNLGILTADL

Variants of: B1
Test: protein stability index of a GFP-peptide fusion (GPS, HEK-293T) (PSI 1-6); higher = more stable
Settings: c terminus: a fixed tail appended
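Note: lentivirally expressed fusions sorted by FACS into six bins by GFP to DsRed ratio, PSI derived from sequencing read proportions per bin multiplied by bin number.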

Point of comparison: SFMPLVIKVTSAYSVNLGILTADL, protein stability index 3.88. Against it:
- SFMVLVIKVTSATSVNLGILTADL — lower, 3.1
- SFMLLVIKVTSATSVNLGILTADL — lower, 2.34
- SFMELVIKVTSATSVNLGILTADL — lower, 3.23
- SFMSLVIKVTSATSVNLGILTADL — lower, 1.73
- SFMPLVIKSTSATSVNLGILTADL — lower, 1.56
- SFMPLVIKKTSATSVNLGILTADL — lower, 1.48
- SFMPLVIKWTSATSVNLGILTADL — lower, 2.28
- SFMPLVIKATSATSVNLGILTADL — lower, 2.07
- SFMPLVIKCTSATSVNLGILTADL — lower, 3.06
- SFMPLVIKTTSATSVNLGILTADL — lower, 1.46
- SFMPLVIKITSATSVNLGILTADL — lower, 3.17
- SFMPLVIKVTSAHSVNLGILTADL — higher, 4
- SFMPLVIKVTSADSVNLGILTADL — lower, 3.02
- SFMPLVIKVTSAISVNLGILTADL — lower, 3.67
- SFMPLVIKVTSAPSVNLGILTADL — lower, 3.09
- SFMPLVIKVTSAFSVNLGILTADL — lower, 2.53
- SFMPLVIKVTSANSVNLGILTADL — lower, 2.55
- SFMPLVIKVTSAWSVNLGILTADL — lower, 2.75
- SFMPLVIKVTSAMSVNLGILTADL — lower, 2.34
- SFMPLVIKVTSASSVNLGILTADL — lower, 2.59
- SSMPLVIKVTSATSVNLGILTADL — lower, 2.92
- SCMPLVIKVTSATSVNLGILTADL — lower, 2.58
- SAMPLVIKVTSATSVNLGILTADL — lower, 2.38
- SLMPLVIKVTSATSVNLGILTADL — lower, 2.42
- SPMPLVIKVTSATSVNLGILTADL — lower, 2.47
- SFMPLVIPVTSATSVNLGILTADL — lower, 2.19
- SFMPLVIAVTSATSVNLGILTADL — lower, 2.83
- SFMPLVIGVTSATSVNLGILTADL — lower, 2.94
- SFMPLVIYVTSATSVNLGILTADL — lower, 3.43
- SFMPLVINVTSATSVNLGILTADL — lower, 3.01
- SFMPLVIQVTSATSVNLGILTADL — lower, 2.87
- SFMPLVIEVTSATSVNLGILTADL — lower, 3.06
- SFMPLVIKVTCATSVNLGILTADL — lower, 2.19
- SFMPLVIKVTMATSVNLGILTADL — higher, 3.94
- SFMPLVIKVTLATSVNLGILTADL — lower, 1.96
- SFMPLVIKVTNATSVNLGILTADL — higher, 4.93
- SFMPLVIKVTAATSVNLGILTADL — higher, 4.19
- SFMPLVIKVTQATSVNLGILTADL — lower, 2.23
- SFMPLVIKVTFATSVNLGILTADL — higher, 4.62
- SFMPLVIKVTSATSVNCGILTADL — lower, 3.14
- SFMPLVIKVTSATSVNKGILTADL — lower, 3.17
- SFMPLVIKVTSATSVNEGILTADL — lower, 2.24
- SFMPLVIKVTSATSVNVGILTADL — lower, 2.44
- SFMPLVIKVTSATSVNSGILTADL — lower, 2.85
- SFMPLVIKVTSATSVNYGILTADL — lower, 2.6
- SFMPLVIKVTSATSVNWGILTADL — lower, 3.32
- SFMPLVIKVTSATSVNTGILTADL — lower, 2.56
- SFMPLVIKVTSATSVNDGILTADL — lower, 2.04
- SFMPAVIKVTSATSVNLGILTADL — lower, 3.18
- SFMPYVIKVTSATSVNLGILTADL — lower, 3.46
- SFMPWVIKVTSATSVNLGILTADL — lower, 2.75
- SFMPRVIKVTSATSVNLGILTADL — lower, 1.65
- SFMPIVIKVTSATSVNLGILTADL — lower, 2.1
- SFMPKVIKVTSATSVNLGILTADL — lower, 1.88
- SFMPCVIKVTSATSVNLGILTADL — lower, 3.74
- SFMPHVIKVTSATSVNLGILTADL — lower, 2.28
- SFMPTVIKVTSATSVNLGILTADL — lower, 3.25
- SFMPEVIKVTSATSVNLGILTADL — lower, 1.51
- SFMPQVIKVTSATSVNLGILTADL — lower, 2.19
- SFMPLVIKVTSATNVNLGILTADL — lower, 3.45
- SFMPLVIKVTSATFVNLGILTADL — lower, 2.94
- SFMPLVIKVTSATAVNLGILTADL — lower, 2.47
- SFMPLVIKVTSATLVNLGILTADL — lower, 2.15
- SFMPLVIKVTSATSVNLGILTADR — lower, 1.89
- SFMPLVIKVTSATSVNLGILTADN — lower, 3.27
- SFMPLVIKVTSATSVNLGILTADE — lower, 2.21
- SFMPLVIKVTSATSVNLGILTADV — lower, 2.43
- SFMPLVIKVTSATSVNLGILTADI — lower, 3.14
- SFMPLVIKVTSATSVNLGILTADC — lower, 3.76
- SFMPLVIKVTSATSVNLGILTADW — lower, 1.78
- SFMPLVIKVTSATSVNLGILTADM — lower, 3.01
- SFMPLVIKVTSATSVNLKILTADL — lower, 2.9
- SFMPLVIKVTSATSVNLWILTADL — lower, 3.32
- SFMPLVIKVTSATSVNLEILTADL — lower, 2.91
- SFMPLVIKVTSATSVNLRILTADL — lower, 3.18
- SFMPLVIKVTSATSVNLSILTADL — lower, 3.19
- SFMPLVIKVTSATSVNLHILTADL — lower, 3.1
- SFMPLVIKVTSATSVNLIILTADL — lower, 3.72
- SFMPLVIKVTSATSVNLMILTADL — lower, 2.55
- SFMPLVIKVTSATSVNLLILTADL — lower, 3.54
- SFMPLVIKVTSATSVNLYILTADL — lower, 3.08
- SFMPLVIKVTSATSVNLDILTADL — lower, 3.2
- SFMPLVIKVTSATSVNLGNLTADL — lower, 2.86
- SFMPLVIKVTSATSVNLGYLTADL — lower, 2.38
- SFMPLVIKVTSATSVNLGALTADL — lower, 3
- SFMPLVIKVTSATSVNLGSLTADL — lower, 2.69
- SFMPLVIKVTSATSVNLGKLTADL — lower, 2.68
- SFMPLVIKVTSATSVNLGGLTADL — lower, 3.15
- SFMPLVIKVTSATSVNLGVLTADL — lower, 2.77
- SFMPLVIKVTSATSVNLGFLTADL — lower, 3.09
- SFMPLVIKVTSATSVNLGCLTADL — lower, 2.99
- SFMPLVIKVTSATSVNLGQLTADL — lower, 2.64
- SFMPLVIKVTSATSVNLGHLTADL — lower, 2.39
